Measured values taken from patent US20220242953A1 (JIANGSU HENGRUI MEDICINE, published 2022).

Experiments:
[1] = target: human CD3 on the cell surface (Jurkat recombinant cells; T cells of PBMC) (human, UniProt P07766 23-207; P04234 22-171); experiment: FACS on Jurkat recombinant cells expressing CD3, APC anti-human IgG Fc detection, geometric mean fluorescence
Protocol: (§1) The ability of bispecific antibodies to bind to cell surface antigens was detected by FACS method.
(§2) FACS buffer (98% PBS, 2% FBS) was added into a 96-well U-shaped bottom plate (corning, 3795) to resuspend the cells, the serially diluted antibodies were added, incubated at 4° C. for 1 hour, and the plate was washed with FACS buffer twice. Then APC anti-human IgG Fc Antibody (biolegend, Cat #409306, dilution at 1:50) was added into each well, incubated at 4° C. for 30 minutes, washed twice, the cells were resuspended in FACS buffer, and finally the fluorescence signal values were read by FACS CantoII (BD).

[2] = target: T1, human B7H3 on the cell surface (A498, CT26/hB7H3, U87, Detroit562 cells) (human, UniProt Q5ZPR3 29-534); experiment: cell-based or functional assay
T1 sequence: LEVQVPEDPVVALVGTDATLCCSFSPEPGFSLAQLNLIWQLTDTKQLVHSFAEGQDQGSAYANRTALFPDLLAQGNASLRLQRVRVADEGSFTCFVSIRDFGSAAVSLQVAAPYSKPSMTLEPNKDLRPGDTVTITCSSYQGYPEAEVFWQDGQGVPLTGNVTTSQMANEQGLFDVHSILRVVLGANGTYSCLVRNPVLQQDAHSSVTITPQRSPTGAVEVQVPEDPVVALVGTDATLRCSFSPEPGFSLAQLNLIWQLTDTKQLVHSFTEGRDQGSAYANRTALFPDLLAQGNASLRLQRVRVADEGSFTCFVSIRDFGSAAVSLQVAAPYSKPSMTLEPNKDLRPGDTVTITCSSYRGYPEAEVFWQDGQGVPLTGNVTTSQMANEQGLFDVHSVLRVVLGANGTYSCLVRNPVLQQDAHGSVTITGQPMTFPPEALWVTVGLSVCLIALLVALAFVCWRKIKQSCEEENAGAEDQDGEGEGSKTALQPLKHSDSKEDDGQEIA

[3] = target: T1, human B7H3 on the cell surface (A498, …); experiment: FACS on A498 cells expressing human B7H3, APC anti-human IgG Fc detection, geometric mean fluorescence
Protocol: as §1, §2

[4] = target: T2, Human B7H3 antigen for detection (SinoBiological cat #11188-H08H) (human, UniProt Q5ZPR3 29-461); experiment: Biacore T200 SPR, bispecific antibody captured, antigen as analyte, 1:1 Langmuir fit
T2 construct: Bought antigen
T2 sequence: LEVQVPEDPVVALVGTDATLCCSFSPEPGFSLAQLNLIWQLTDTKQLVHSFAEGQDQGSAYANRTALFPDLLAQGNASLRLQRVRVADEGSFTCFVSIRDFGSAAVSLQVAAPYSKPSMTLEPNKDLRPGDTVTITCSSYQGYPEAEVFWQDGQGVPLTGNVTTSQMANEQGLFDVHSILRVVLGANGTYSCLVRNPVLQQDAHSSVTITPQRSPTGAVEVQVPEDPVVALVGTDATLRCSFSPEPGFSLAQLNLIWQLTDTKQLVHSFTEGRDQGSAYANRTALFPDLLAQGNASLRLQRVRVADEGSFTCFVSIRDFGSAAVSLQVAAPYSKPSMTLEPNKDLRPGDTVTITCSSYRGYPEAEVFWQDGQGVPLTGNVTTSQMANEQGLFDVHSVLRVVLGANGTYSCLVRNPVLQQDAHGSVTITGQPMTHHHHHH
Protocol: (§3) The detection of antibody affinity to B7H3 and CD3 was performed in the form of capture antibody. BsAb was captured by CM5 biosensor chip (Cat. #BR-1005-30, GE) or Protein A (Cat. #29127556, GE) biosensor chip coupled with Anti-Human IgG Antibody (Cat. #BR-1008-39, Lot. #10260416, GE), and then each antigen flowed through the surface of the chip. The reaction signals were detected in real time with the Biacore T200 instrument to obtain the binding and dissociation curves. After the dissociation of each experimental cycle was completed, the chip was washed and regenerated with regeneration buffer Glycine1.5 (Cat #BR100354, GE) or 3 M MgCl₂ (from Human antibody capture kit, Cat. #BR100839, GE). The data were fitted with the (1:1) Langmuir model using GE Biacore T200 Evaluation version 3.0 software, and the affinity values were obtained.

[5] = target: T3, Human CD3 antigen for detection (SinoBiological cat #CT038-H2508H); human CD3 epsilon-His and human CD3 … (human, UniProt P07766 23-126; P04234 22-105); experiment: as above
T3 construct: Bought antigen
T3 sequence (P07766 other isoform, or with tags, fused parts or gaps H2508H H2508H, chain 1 of 2): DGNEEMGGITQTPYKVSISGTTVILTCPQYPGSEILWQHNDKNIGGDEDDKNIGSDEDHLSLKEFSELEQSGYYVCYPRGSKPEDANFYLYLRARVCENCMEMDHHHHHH
T3 sequence (P04234 other isoform, or with tags, fused parts or gaps H2508H H2508H, chain 2 of 2): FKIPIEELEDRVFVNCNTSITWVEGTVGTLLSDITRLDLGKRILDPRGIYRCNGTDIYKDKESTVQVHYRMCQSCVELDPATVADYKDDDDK
Protocol: as §3

[6] = target: T4, Monkey CD3 antigen for detection (Acro biosystem cat #CDD-C52W4); monkey CD3 epsilon-His and monkey CD3 … (monkey (cyno), UniProt Q95LI5 22-117; Q95LI8 22-105); experiment: as above
T4 construct: Bought antigen
T4 sequence (Q95LI5 other isoform, or with tags, fused parts or gaps mutant, chain 1 of 2): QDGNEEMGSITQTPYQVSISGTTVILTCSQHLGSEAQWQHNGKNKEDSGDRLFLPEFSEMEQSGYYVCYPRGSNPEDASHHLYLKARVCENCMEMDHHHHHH
T4 sequence (Q95LI8 other isoform, or with tags, fused parts or gaps mutant, chain 2 of 2): as the sequence (P04234 other isoform, or with tags, fused parts or gaps H2508H H2508H, chain 2 of 2) above, with I5V, N15K, I20V, S32T, D33N, I34N, T64A, S74N, V83L counted along it
Protocol: as §3

[7] = target: T5, Monkey B7H3 antigen for detection (SinoBiological cat #90806-C08H) (monkey (cyno)); experiment: as above
T5 construct: Bought antigen; also called monkey (cyno) B7H3
T5 chain: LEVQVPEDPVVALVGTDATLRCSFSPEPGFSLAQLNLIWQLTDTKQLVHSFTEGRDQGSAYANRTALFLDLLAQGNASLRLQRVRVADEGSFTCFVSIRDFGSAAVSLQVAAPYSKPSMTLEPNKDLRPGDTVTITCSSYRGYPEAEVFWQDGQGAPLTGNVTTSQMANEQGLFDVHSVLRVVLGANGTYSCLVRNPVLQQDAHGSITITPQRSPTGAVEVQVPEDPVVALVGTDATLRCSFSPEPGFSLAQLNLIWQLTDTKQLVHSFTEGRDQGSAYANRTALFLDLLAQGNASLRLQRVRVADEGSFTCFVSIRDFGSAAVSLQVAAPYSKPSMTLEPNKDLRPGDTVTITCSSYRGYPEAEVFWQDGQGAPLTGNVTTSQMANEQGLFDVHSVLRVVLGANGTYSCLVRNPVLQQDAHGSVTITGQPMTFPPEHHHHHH
Protocol: as §3

[8] = target: T1, human B7H3 on the cell surface (A498, …); experiment: FACS on CT26/hB7H3 cells over-expressing human B7H3, APC anti-human IgG Fc detection, geometric mean fluorescence
Protocol: as §1, §2

Sequence of human CD3 on the cell surface (Jurkat recombinant cells; T cells of PBMC) (P07766 23-207, chain 1 of 2): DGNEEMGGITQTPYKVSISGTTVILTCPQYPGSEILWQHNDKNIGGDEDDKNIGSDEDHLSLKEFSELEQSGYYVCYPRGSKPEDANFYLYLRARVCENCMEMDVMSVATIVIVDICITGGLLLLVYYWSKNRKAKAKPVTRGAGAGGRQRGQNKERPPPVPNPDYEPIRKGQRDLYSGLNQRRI
Sequence of human CD3 on the cell surface (Jurkat recombinant cells; T cells of PBMC) (P04234 22-171, chain 2 of 2): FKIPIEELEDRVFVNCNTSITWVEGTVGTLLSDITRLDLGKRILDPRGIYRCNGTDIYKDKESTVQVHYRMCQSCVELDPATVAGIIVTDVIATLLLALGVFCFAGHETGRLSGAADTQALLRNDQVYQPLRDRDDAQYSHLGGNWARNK

| Binder | EC50 (read off the curve) [1] [nM] | Emax (%), PBMC-mediated killing of A498 cells (B7H3 high) [2] [%] | Emax (%), PBMC-mediated killing of Detroit562 cells (B7H3 low) [2] [%] | Emax (%), PBMC-mediated killing of U87 cells (B7H3 intermediate) [2] [%] | IC50 (nM), PBMC-mediated killing of A498 cells (B7H3 high) [2] [nM] | IC50 (nM), PBMC-mediated killing of Detroit562 cells (B7H3 low) [2] [nM] | IC50 (nM), PBMC-mediated killing of U87 cells (B7H3 intermediate) [2] [nM] | binding result [3] | Kd [4] [nM] | Kd [5] [nM] | Kd [6] [nM] | Kd [7] [nM] | EC50 (read off the curve) [8] [nM] | binding result [1] | EC50 (read off the curve) [3] [nM] |
| --- | --- | --- | --- | --- | --- | --- | --- | --- | --- | --- | --- | --- | --- | --- | --- |
| NC1 (negative control bispecific antibody; B7H3 binding domain replaced with a non-related antibody, CD3 binding domain retained) (bispecific antibody, Control arm said to be an anti-fluorescein antibody; CD3 scFv with HRH-3) chain 1: not shown chain 2: DIQMTQSPSSVSASVGDRVTITCRASQDIANYLSWYQQKPGKSPKLLIYGTSNLEVGVPSRFSGSRSGTDFTLTISSLQPEDFATYYCLQDKEFPRTFGGGTKVEIKGGGGSGGGGSGGGGSEVQLVESGGGLVQPGGSLRLSCAASGFTFSHYYMAWVRQAPGKGLEWVTSISYEGDITYYGDSVKGRFTISRDNSKNTLYLQMNSLRAEDTATYYCASQTLRESFDYWGQGTLVTVSSGGGDKTHTCPPCPAPEAAGGPSVFLFPPKPKDTLMISRTPEVTCVVVDVSHEDPEVKFNWYVDGVEVHNAKTKPREEQYNSTYRVVSVLTVLHQDWLNGKEYKCKVSNKALPAPIEKTISKAKGQPREPQVCTLPPSREEMTKNQVSLSCAVKGFYPSDIAVEWESNGQPENNYKTTPPVLDSDGSFFLVSKLTVDKSRWQQGNVFSCSVMHEALHNHYTQKSLSLSPGK | ~70 | 20.9 | 0.95 | 3.8 | > 300 | > 300 | > 300 | no binding (tested: about 5000 nM (log 3.7 on the axis)) | – | – | – | – | – | – | – |
| bispecific antibody 118 (AFF 6-3) (bispecific antibody, B7H3 bivalent CD3-B7H3 bispecific antibody, CD3 VH HRH-3, CD3 scFv at the N-terminus) chain 1: not shown chain 2: QTVVTQEPSFSVSPGGTVTLTCGLSSGSVSTSHYPSWYQQTPGQAPRMLIYNTNTRSSGVPDRFSGSILGNKAALTITGAQADDESDYYCAIHVDRDIWVFGGGTKLTVLGGGGSGGGGSGGGGSQVQLVQSGGGVVQPGTSLRLSCAASGFIFSSSAMHWVRQAPGKGLEWVAVISYDGSNKYYVDSVKGRFTISRDNSKNTLYLQMNSLRAEDTAVYYCARSARLYASFDYWGQGALVTVSSGGGDKTHTCPPCPAPEAAGGPSVFLFPPKPKDTLMISRTPEVTCVVVDVSHEDPEVKFNWYVDGVEVHNAKTKPREEQYNSTYRVVSVLTVLHQDWLNGKEYKCKVSNKALPAPIEKTISKAKGQPREPQVCTLPPSREEMTKNQVSLSCAVKGFYPSDIAVEWESNGQPENNYKTTPPVLDSDGSFFLVSKLTVDKSRWQQGNVFSCSVMHEALHNHYTQKSLSLSPGK | ~100 | 65.9 | 39.2 | 67.2 | 0.34 | 14.5 | 2.4 | – | 5.33 | 66.1 | 1.59 | 7.31 | ~1 | – | – |
| NC2 (negative control bispecific antibody; B7H3 binding domain retained, CD3 binding domain replaced with a non-related antibody) (bispecific antibody, Control arm said to be anti-fluorescein) chain 1: not shown chain 2: QTVVTQEPSFSVSPGGTVTLTCGLSSGSVSTSHYPSWYQQTPGQAPRMLIYNTNTRSSGVPDRFSGSILGNKAALTITGAQADDESDYYCAIHVDRDIWVFGGGTKLTVLGGGGSGGGGSGGGGSQVQLVQSGGGVVQPGTSLRLSCAASGFIFSSSAMHWVRQAPGKGLEWVAVISYDGSNKYYVDSVKGRFTISRDNSKNTLYLQMNSLRAEDTAVYYCARSARLYASFDYWGQGALVTVSSGGGDKTHTCPPCPAPEAAGGPSVFLFPPKPKDTLMISRTPEVTCVVVDVSHEDPEVKFNWYVDGVEVHNAKTKPREEQYNSTYRVVSVLTVLHQDWLNGKEYKCKVSNKALPAPIEKTISKAKGQPREPQVCTLPPSREEMTKNQVSLSCAVKGFYPSDIAVEWESNGQPENNYKTTPPVLDSDGSFFLVSKLTVDKSRWQQGNVFSCSVMHEALHNHYTQKSLSLSPGK | – | – | – | – | – | – | – | – | – | – | – | – | ~4 | no binding (tested: about 8000 nM (log 3.9 on the axis)) | ~30 |
| MGD009 (positive control bispecific antibody, three chains) (bispecific antibody, B7H3 monovalent B7H3xCD3 DART-Fc) chain 1: DIQLTQSPSFLSASVGDRVTITCKASQNVDTNVAWYQQKPGKAPKALIYSASYRYSGVPSRFSGSGSGTDFTLTISSLQPEDFATYYCQQYNNYPFTFGQGTKLEIKGGGSGGGGEVQLVESGGGLVQPGGSLRLSCAASGFTFSTYAMNWVRQAPGKGLEWVGRIRSKYNNYATYYADSVKDRFTISRDDSKNSLYLQMNSLKTEDTAVYYCVRHGNFGNSYVSWFAYWGQGTLVTVSSGGCGGGEVAALEKEVAALEKEVAALEKEVAALEKGGGDKTHTCPPCPAPEAAGGPSVFLFPPKPKDTLMISRTPEVTCVVVDVSHEDPEVKFNWYVDGVEVHNAKTKPREEQYNSTYRVVSVLTVLHQDWLNGKEYKCKVSNKALPAPIEKTISKAKGQPREPQVYTLPPSREEMTKNQVSLWCLVKGFYPSDIAVEWESNGQPENNYKTTPPVLDSDGSFFLYSKLTVDKSRWQQGNVFSCSVMHEALHNHYTQKSLSLSPGK chain 2: QAVVTQEPSLTVSPGGTVTLTCRSSTGAVTTSNYANWVQQKPGQAPRGLIGGTNKRAPWTPARFSGSLLGGKAALTITGAQAEDEADYYCALWYSNLWVFGGGTKLTVLGGGGSGGGGEVQLVESGGGLVQPGGSLRLSCAASGFTFSSFGMHWVRQAPGKGLEWVAYISSDSSAIYYADTVKGRFTISRDNAKNSLYLQMNSLRDEDTAVYYCGRGRENIYYGSRLDYWGQGTTVTVSSGGCGGGKVAALKEKVAALKEKVAALKEKVAALKE chain 3: not shown | ~100 | – | – | – | – | – | – | – | 1.96 | 78.1 | 4.94 | 2.65 | ~10 | – | – |
